Molecular target: inactive Minerva virus protease (norovirus GII.4 NS6 protease, C139A) (norovirus GII.4 (Minerva virus))
Assay: crystal structure

**Q.** How did the stoichiometry N turn out when “inactive Minerva virus protease (norovirus GII.4 NS6 protease, C139A) (enzyme)” was run?
**A.** The stoichiometry N was 2.

Reference: article PMC7717172
